Experiment [1] deals with T1, murine CCR8 (mouse, UniProt P56484 1-353).
T1 construct: Transiently expressed on HEK293/HEK293T cells or endogenously expressed on BW5147 cells; also called mouse CCR8; mCCR8
T1 sequence: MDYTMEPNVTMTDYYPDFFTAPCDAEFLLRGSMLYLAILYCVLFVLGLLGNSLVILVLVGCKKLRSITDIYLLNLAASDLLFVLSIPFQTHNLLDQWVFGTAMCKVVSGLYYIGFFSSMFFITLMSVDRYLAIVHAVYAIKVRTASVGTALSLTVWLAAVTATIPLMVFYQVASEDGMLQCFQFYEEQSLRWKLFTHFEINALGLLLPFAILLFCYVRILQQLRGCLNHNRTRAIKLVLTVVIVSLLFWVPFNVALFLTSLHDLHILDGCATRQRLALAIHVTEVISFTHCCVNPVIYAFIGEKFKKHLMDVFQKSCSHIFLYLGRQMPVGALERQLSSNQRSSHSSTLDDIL
Description: flow cytometry on cells transfected with mouse CCR8.

In experiment [2] the target is T2, human CCR8 (human, UniProt P51685 1-355).
T2 construct: Expressed on HEK293, HEK293T or CHO-K1 cells, stably or transiently transfected; also called hCCR8
Description: competitive binding, flow cytometry.

In experiment [3] the target is T2, human CCR8. The experiment in a line: flow cytometry competition with parental VHH-64. From the text: (§1) Multiple His6 tagged VHH variants were thus generated and evaluated by flow cytometry for their ability to compete for binding to hCCR8 with their FLAG3-His6 tagged parental counterpart (VHH-57, VHH-64 or VHH-67).
For experiment [4], the target named is T2, human CCR8. Description: flow cytometry competition with parental VHH-67.
Description: as §1

Experiment [5] addresses T1, murine CCR8. Description: flow cytometry on HEK293T cells transiently transfected with mouse CCR8.
Experiment [6] concerns the target T2, human CCR8. Description: flow cytometry on HEK293 cells with hCCR8 and chimeric/deleted variants.
Experiment [7] deals with T2, human CCR8. Description: flow cytometry competition with parental VHH-57.
Description: as §1

T2 sequence (P51685 whole entry): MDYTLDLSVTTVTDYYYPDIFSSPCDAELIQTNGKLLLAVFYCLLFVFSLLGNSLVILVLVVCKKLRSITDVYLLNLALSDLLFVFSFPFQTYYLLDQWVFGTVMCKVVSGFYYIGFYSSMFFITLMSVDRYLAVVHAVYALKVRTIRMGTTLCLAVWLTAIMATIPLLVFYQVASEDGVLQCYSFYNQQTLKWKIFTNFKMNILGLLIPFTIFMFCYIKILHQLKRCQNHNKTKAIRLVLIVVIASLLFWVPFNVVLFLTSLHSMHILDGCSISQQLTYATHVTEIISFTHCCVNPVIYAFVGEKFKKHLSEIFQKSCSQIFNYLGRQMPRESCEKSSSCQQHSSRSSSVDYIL

B1: VHH-64 (VHH)
VHH: EVQLVESGGGLVQPGGSLRLSCAVSGGIRSIIPAGWYRQVPGKQRELVAAISTAGSADYADSVKGRFTISRDNTKNTAYLQMNSLRPEDTAVYYCNGRQTGWRTRVDYWGQGTLVTVSS
notes: Monovalent VHH purified from E. coli periplasm with C-terminal FLAG3 and His6 tags; not shown: C-terminal FLAG3 and His6 tags
For B1, the binding result with murine CCR8 [1] and with human CCR8 [2] was “binds” each time.

B2: VHH-84 (VHH)
VHH: DVQLVESGGGLVQPGGSLRLSCAVSGGIRSIIPAGWYRQAPGKQRELVAAISTAGSADYADSVKGRFTISRDNAKNTVYLQMNSLRPEDTAVYYCNGRQTGWRTRVDYWGQGTLVTVSS
notes: also called VHH-64 with mutations E1D, V40A, T74A, A78V; not shown: C-terminal His6 tag (no FLAG3)
With B2, the binding result in the experiment with human CCR8 [3] is listed as “binds”.

B3: VHH-120 (VHH)
VHH: DVQLVESGGGLVQPGGSLRLSCTVSGSIFSLRTVGWYRQAPGKQRELVATISAGGATDYADSVKGRFTISRDNAKNTVYLQMNSLRPEDTAVYYCYAQDSYKIYKSRYTQDYWGQGTLVTVSS
notes: also called VHH-67 with mutations E1D, V65G, V69I, G74A; not shown: C-terminal His6 tag (no FLAG3)
Regarding B3, the binding result with human CCR8 [4] is given as “binds”.

B4: VHH-121 (VHH)
VHH: DVQLVESGGGLVQPGGSLRLSCTVSGSIFSLRTVGWYRQAPGKQRELVATISAGGATDYADSVKGRFTISRDNAKNTVYLQMNSLRPEDTAVYYCYAQQSYKIYKSRYTQDYWGQGTLVTVSS
notes: also called VHH-67 with E1D, V65G, V69I, G74A, D99Q; not shown: C-terminal His6 tag (no FLAG3)
As for B4, the binding result in the experiment with human CCR8 [4] is listed as “binds”.

B5: VHH-122 (VHH)
VHH: DVQLVESGGGLVQPGGSLRLSCTVSGSIFSLRTVGWYRQAPGKQRELVATISAGGATDYADSVKGRFTISRDNAKNTVYLQMNSLRPEDTAVYYCYAQDTYKIYKSRYTQDYWGQGTLVTVSS
notes: also called VHH-67 with E1D, V65G, V69I, G74A, S100T; not shown: C-terminal His6 tag (no FLAG3)
In the case of B5, the binding result with human CCR8 [4] is recorded as “binds”.

B6: VHH-67 (VHH)
VHH: EVQLVESGGGLVQPGGSLRLSCTVSGSIFSLRTVGWYRQAPGKQRELVATISAGGATDYADSVKVRFTVSRDNGKNTVYLQMNSLRPEDTAVYYCYAQDSYKIYKSRYTQDYWGQGTLVTVSS
notes: as for B1
On to B6, for which the binding result with murine CCR8 [5] and with human CCR8 [6] was “binds” each time.

B7: VHH-57 (VHH)
VHH: EVQLVESGGGLVQPGGSLRLSCTASGNIFSLLDMKWYRQAPGKQRELVADITSGGSTNYADPVKGRFTISRDNAKNTVYLQMNSLRPEDTAVYYCNAAPYYWGAYRRQESWGQGTLVTVSS
notes: as for B1
Consider B7, for which the binding result in the experiment with murine CCR8 [5] and with human CCR8 [6] was “binds” in each case.

B8: VHH-119 (VHH)
VHH: DVQLVESGGGLVQPGGSLRLSCTASGSIFSLLDMKWYRQAPGKQRELVADITSGGSTNYADSVKGRFTISRDNAKNTVYLQMNSLRPEDTAVYYCNAAPYYWGAYRRQESWGQGTLVTVSS
notes: also called VHH-57 with mutations E1D, N27S, P62S; not shown: C-terminal His6 tag (no FLAG3)
As for B8, the binding result with human CCR8 [7] is given as “binds”.
